These results are taken from the Human Domainome abundance scans (Beltran et al. 2025).

± gives the uncertainty stated by the source.

B1: Zinc finger homeobox protein 4, residues 2086 to 2141; numbered along this chain, Q86UP3 (parent)
chain: RPRTRITDDQLKILRAYFDINNSPSEEQIQEMAEKSGLSQKVIKHWFRNTLFKERQ

In the data set the parent is B1. As to the kind of experiment: abundance fitness (aPCA) (normalised: wild type 0, dead -1); higher = more abundant; growth selection in yeast, the domain comes from the species named. The note with it: Homo sapiens.
In the case of RPRTRITDDQLKILRAYFDINNSPSEEQIQEMAMKSGLSQKVIKHWFRNTLFKERQ, the abundance fitness was -0.221 ± 0.13.
As for RPRTRITDDQLKILRAYFDINNSPSEEQIQEMAPKSGLSQKVIKHWFRNTLFKERQ, the figure is -0.536 ± 0.14.
On to RPRTRITDDQLKILRAYFDINNSPSEEQIQEMAIKSGLSQKVIKHWFRNTLFKERQ, for which the abundance fitness is -0.211 ± 0.19.
RPRTRITDDQLKILRAYFDINNSPSEEQIQEMAFKSGLSQKVIKHWFRNTLFKERQ: the abundance fitness is -0.392 ± 0.12.
With RPRTRITDDQLKILRAYFDINNSPSEEQIQEMATKSGLSQKVIKHWFRNTLFKERQ, the abundance fitness came out at 0.023 ± 0.11.
The value for RPRTRITDDQLKILRAYFDINNSPSEEQIQEMADKSGLSQKVIKHWFRNTLFKERQ was -0.014 ± 0.1; that for RPRTRITDDQLKILRAYFDINNSPSEEQIQEMASKSGLSQKVIKHWFRNTLFKERQ was -0.162 ± 0.083; that for RPRTRITDDQLKILRAYFDINNSPSEEQIQEMAAKSGLSQKVIKHWFRNTLFKERQ was -0.011 ± 0.084.
The value for RPRTRITDDQLKILRAYFDINNSPSEEQIQEMAWKSGLSQKVIKHWFRNTLFKERQ was -0.276 ± 0.098; that for RPRTRITDDQLKILRAYFDINNSPSEEQIQEMANKSGLSQKVIKHWFRNTLFKERQ was -0.136 ± 0.14.
RPRTRITDDQLKILRAYFDINNSPSEEQIQEMAYKSGLSQKVIKHWFRNTLFKERQ: the abundance fitness is -0.502 ± 0.2.
The value for RPRTRITDDQLKILRAYFDINNSPSEEQIQEMAGKSGLSQKVIKHWFRNTLFKERQ was 0.033 ± 0.068; that for RPRTRITDDQLKILRAYFDINNSPSEEQIQEMAEKEGLSQKVIKHWFRNTLFKERQ was -0.244 ± 0.085.
The value for RPRTRITDDQLKILRAYFDINNSPSEEQIQEMAEKHGLSQKVIKHWFRNTLFKERQ was -0.367 ± 0.13.
As for RPRTRITDDQLKILRAYFDINNSPSEEQIQEMAEKNGLSQKVIKHWFRNTLFKERQ, the figure is -0.374 ± 0.18; as for RPRTRITDDQLKILRAYFDINNSPSEEQIQEMAEKDGLSQKVIKHWFRNTLFKERQ, -0.857 ± 0.13; as for RPRTRITDDQLKILRAYFDINNSPSEEQIQEMAEKIGLSQKVIKHWFRNTLFKERQ, -0.082 ± 0.15.
As to RPRTRITDDQLKILRAYFDINNSPSEEQIQEMAEKMGLSQKVIKHWFRNTLFKERQ, the abundance fitness was -0.213 ± 0.12.
RPRTRITDDQLKILRAYFDINNSPSEEQIQEMAEKTGLSQKVIKHWFRNTLFKERQ: the abundance fitness is -0.108 ± 0.094.
As for RPRTRITDDQLKILRAYFDINNSPSEEQIQEMAEKGGLSQKVIKHWFRNTLFKERQ, the abundance fitness was -0.28 ± 0.064.
The value for RPRTRITDDQLKILRAYFDINNSPSEEQIQEMAEKRGLSQKVIKHWFRNTLFKERQ was -0.533 ± 0.066; that for RPRTRITDDQLKILRAYFDINNSPSEEQIQEMAEKFGLSQKVIKHWFRNTLFKERQ was -0.357 ± 0.1; that for RPRTRITDDQLKILRAYFDINNSPSEEQIQEMAEKWGLSQKVIKHWFRNTLFKERQ was -0.42 ± 0.084.
Turning to RPRTRITDDQLKILRAYFDINNSPSEEQIQEMAEKPGLSQKVIKHWFRNTLFKERQ, the abundance fitness was -0.874 ± 0.11.
Consider RPRTRITDDQLKILRAYFDINNSPSEEQIQEMAEKYGLSQKVIKHWFRNTLFKERQ, for which the abundance fitness was -0.267 ± 0.1.
On to RPRTRITDDQLKILRAYFDINNSPSEEQIQEMAEKKGLSQKVIKHWFRNTLFKERQ, for which the abundance fitness is -0.824 ± 0.15.
The value for RPRTRITDDQLKILRAYFDINNSPSEEQIQEMAEKCGLSQKVIKHWFRNTLFKERQ was -0.002 ± 0.1; that for RPRTRITDDQLKILRAYFDINNSPSEEQIQEMAEKAGLSQKVIKHWFRNTLFKERQ was -0.06 ± 0.077.
The value for RPRTRITDDQLKILRAYFDINNSPSEEQIQEMAEKLGLSQKVIKHWFRNTLFKERQ was -0.214 ± 0.079; that for RPRTRITDDQLKILRAYFDINNSPSEEQIQEMAEKQGLSQKVIKHWFRNTLFKERQ was -0.342 ± 0.11; that for RPRTRITDDQLKILRAYFDINNSPSEEQIQEYAEKSGLSQKVIKHWFRNTLFKERQ was -0.212 ± 0.12.
Turning to RPRTRITDDQLKILRAYFDINNSPSEEQIQEWAEKSGLSQKVIKHWFRNTLFKERQ, the abundance fitness was -0.511 ± 0.083.
As for RPRTRITDDQLKILRAYFDINNSPSEEQIQEMQEKSGLSQKVIKHWFRNTLFKERQ, the abundance fitness worked out at 0.127 ± 0.27.
RPRTRITDDQLKILRAYFDINNSPSEEQIQEMSEKSGLSQKVIKHWFRNTLFKERQ: the abundance fitness is -0.025 ± 0.11.
The value for RPRTRITDDQLKILRAYFDINNSPSEEQIQEMDEKSGLSQKVIKHWFRNTLFKERQ was -0.337 ± 0.14; that for RPRTRITDDQLKILRAYFDINNSPSEEQIQEMFEKSGLSQKVIKHWFRNTLFKERQ was -0.036 ± 0.11; that for RPRTRITDDQLKILRAYFDINNSPSEEQIQEMIEKSGLSQKVIKHWFRNTLFKERQ was 0.038 ± 0.17.
With RPRTRITDDQLKILRAYFDINNSPSEEQIQEMHEKSGLSQKVIKHWFRNTLFKERQ, the abundance fitness was 0.191 ± 0.18.
Consider RPRTRITDDQLKILRAYFDINNSPSEEQIQEMPEKSGLSQKVIKHWFRNTLFKERQ, for which the abundance fitness was -0.84 ± 0.19.
With RPRTRITDDQLKILRAYFDINNSPSEEQIQEMCEKSGLSQKVIKHWFRNTLFKERQ, the abundance fitness is 0.181 ± 0.12.
For RPRTRITDDQLKILRAYFDINNSPSEEQIQEMVEKSGLSQKVIKHWFRNTLFKERQ, the abundance fitness was -0.169 ± 0.14.
Take RPRTRITDDQLKILRAYFDINNSPSEEQIQEMTEKSGLSQKVIKHWFRNTLFKERQ: the abundance fitness came to 0.029 ± 0.1.
RPRTRITDDQLKILRAYFDINNSPSEEQIQEMGEKSGLSQKVIKHWFRNTLFKERQ: the abundance fitness came out at 0.056 ± 0.16.
Regarding RPRTRITDDQLKILRAYFDINNSPSEEQIQEMKEKSGLSQKVIKHWFRNTLFKERQ, the abundance fitness is -0.126 ± 0.25.
For the variant RPRTRITDDQLKILRAYFDINNSPSEEQIQEMREKSGLSQKVIKHWFRNTLFKERQ, the abundance fitness came out at 0.05 ± 0.13.
As for RPRTRITDDQLKILRAYFDINNSPSEEQIQEMYEKSGLSQKVIKHWFRNTLFKERQ, the figure is -0.531 ± 0.21; as for RPRTRITDDQLKILRAYFDINNSPSEEQIQEMWEKSGLSQKVIKHWFRNTLFKERQ, -0.582 ± 0.42.
